The source of these data is article PMC6283879, “Structural assembly of the megadalton-sized receptor for intestinal vitamin B12 uptake and kidney protein reabsorption” (Nature Communications, 2018).

Data set [1] can be described thus: flow cytometry, cubilin surface expression, CHO K1. The following applies: glycan lost; control: wild type AMN co-transfected with cubilin.
Data set [2] concerns the molecule itself. Kind of data set: crystal structure; AMN(20–357) and cubilin(26–135) co-expressed in E. coli and co-purified; crystals at 4 °C, sitting drop, 1.5 M magnesium sulphate, 0.1 M MES pH 5.5; 2.3 Å, SAD phasing.

B1: amnionless (AMN): S37A (protein)
parent chain: MGVLGRVLLWLQLCALTQAVSKLWVPNTDFDVAANWSQNRTPCAGGAVEFPADKMVSVLVQEGHAVSDMLLPLDGELVLASGAGFGVSDVGSHLDCGAGEPAVFRDSDRFSWHDPHLWRSGDEAPGLFFVDAERVPCRHDDVFFPPSASFRVGLGPGASPVRVRSISALGRTFTRDEDLAVFLASRAGRLRFHGPGALSVGPEDCADPSGCVCGNAEAQPWICAALLQPLGGRCPQAACHSALRPQGQCCDLCGAVVLLTHGPAFDLERYRARILDTFLGLPQYHGLQVAVSKVPRSSRLREADTEIQVVLVENGPETGGAGRLARALLADVAENGEALGVLEATMRESGAHVWGSSAAGLAGGVAAAVLLALLVLLVAPPLLRRAGRLRWRRHEAAAPAGAPLGFRNPVFDVTASEELPLPRRLSLVPKAAADSTSHSYFVNPLFAGAEAEA
On to B1, for which the localisation_or_trafficking result in data set [1] is “no change”.

B2: amnionless (AMN): S37A/T41I (protein)
parent chain: B1 parent chain
On to B2, for which the localisation_or_trafficking result in data set [1] is listed as “no change”.

B3: N-terminal fragment of cubilin (residues 26–135) (domain or fragment, human, UniProt O60494 26-135, looked up)
chain: GELELQRQKRSINLQQPRMATERGNLVFLTGSAQNIEFRTGSLGKIKLNDEDLSECLHQIQKNKEDIIELKGSAIGLPQNISSQIYQLNSKLVDLERKFQGLQQTVDKKV
notes: The methods name 'human' before AMN only ('human AMN ... and the N-terminal fragment of cubilin'); Cloned into the NdeI site of multiple cloning site 2 of pACYCDuet-1; also called trimeric cubilin; source: also in E. coli lysate / His-tag column eluate with the AMN T41I mutant
Broadly, the stoichiometry N is the number of molecules, sites or subunits per partner or assembly. Take B3: the “stoichiometry N” value in data set [2] was 3.
